Test results taken from patent publication US10532083B2, “Methods for inducing differentiation or conversion of white adipocytes and/or preadipocytes to brown adipocites using FGF8” (Technische Universität München, priority 2014, dated 2020).

What was measured:
[1] = tested on: subcutaneous white adipose tissue; details: cited from earlier work
[2] = tested on: visceral, epididymal white adipocytes; test: Ucp1 / brown adipocyte marker mRNA (qPCR) in immortalized epididymal white adipocytes treated with FGFs; type: cell-based, murine; details: epididymal adipocytes; six days of differentiation; FGF8a, b, e, f 25.0 ng/ml, FGF17 10.0 ng/ml
Protocol: (§1) Screening paracrine FGFs for a browning potential. A, B—Screening of all paracrine FGFs in immortalized white adipocytes. Subcutaneous, inguinal and visceral, epididymal white adipocytes were grown to confluence in Dulbecco's modified Eagle's medium with 4.5 g/l glucose, supplemented with 20 nmol/l insulin, 1 nmol/l triiodothyronine, 20% fetal bovine serum, and penicillin/streptomycin. Upon reaching confluence, differentiation was induced with 500 mmol/l isobutylmethylxanthine, 250 mmol/l indomethacine, and 2 mg/ml dexamethasone for 24 hours. Subsequently, members of the paracrine FGF protein family were added to the medium for the following six days. The medium and the FGF indicated were changed every 48 hours. Untreated cells served as a negative control. At the end of the differentiation process total RNA was isolated using TRIzol reagents, RNA quality and concentration was measured by photometric analysis, and 5 μg of total RNA was reverse-transcribed to cDNA. Finally, quantitative analysis of UCP-1 mRNA expression was performed. A bar graph analysis including the SEM of 3 to 6 independent experiments is shown. […] B—Four different splicing forms of the Fgf8 gene were compared by quantifying Ucp1 mRNA expression in fully differentiated white adipocytes. UCP-1 mRNA abundance is shown in percent of the FGF8b value. Fgf8b and Fgf8f were able to increase expression in epididymal adipocytes. C—Illustration depicting the different exon usage that characterizes the FGF8 spliceforms a, b, e, and f.
(§2) Dose dependency of Ffg8b action. A, B—Subcutaneous, inguinal and visceral, epididymal white adipocytes were grown to confluence in Dulbecco's modified Eagle's medium with 4.5 g/l glucose, supplemented with 20 nmol/l insulin, 1 nmol/l triiodothyronine, 20% fetal bovine serum, and penicillin/streptomycin. Upon reaching confluence, differentiation was induced with 500 mmol/l isobutylmethylxanthine, 250 mmol/l indomethacine, and 2 mg/ml dexamethasone for 24 hours. Subsequently, FGF8b in five indicated concentrations were added to the medium for the following six days. The medium and the FGF8b were changed every 48 hours. Untreated cells served as a negative control. At the end of the differentiation process total RNA was isolated using TRIzol reagents, RNA quality and concentration was measured by photometric analysis, and 5 μg of total RNA was reverse-transcribed to cDNA. Finally, quantitative analysis of UCP-1 mRNA expression was performed. FGF8b induces Ucp1 mRNA abundance in inguinal and epididymal adipocytes. Epididymal fat cells were more dose dependently responsive to Fgf8b treatment as compared to inguinal cells. The latter were responsive to FGF8b treatment above the threshold indicated. B—The absolute increase of several genes typical for brown fat cells.
(§3) Treatment timecourse experiment. A, B—Subcutaneous, inguinal and visceral, epididymal white adipocytes were grown to confluence (prolif. denotes proliferation period) in Dulbecco's modified Eagle's medium with 4.5 g/l glucose, supplemented with 20 nmol/l insulin, 1 nmol/l triiodothyronine, 20% fetal bovine serum, and penicillin/streptomycin. Upon reaching confluence, differentiation was induced with 500 mmol/l isobutylmethylxanthine, 250 mmol/l indomethacine, and 2 mg/ml dexamethasone for 24 hours (induction). Subsequently, the cells were cultured for another six days (differentiation). At the end of the differentiation process total RNA was isolated using TRIzol reagents, RNA quality and concentration was measured by photometric analysis, and 5 μg of total RNA was reverse-transcribed to cDNA. Finally, quantitative analysis of UCP-1 mRNA expression was performed. Untreated cells served as a negative control. A bar graph analysis including the SEM of 5 independent experiments is shown. A—Epididymal fat cells were treated with FGF8b during different time windows as given by black squares indicating one day of treatment each. […]

[3] = tested on: subcutaneous, inguinal white adipocytes; test: Ucp1 / brown adipocyte marker mRNA (qPCR) in immortalized inguinal white adipocytes treated with FGFs; type: cell-based, murine; details: inguinal adipocytes; six days of differentiation; FGF8a, b, e, f 25.0 ng/ml, FGF17 10.0 ng/ml
Protocol: as §1, §2, §3

B1: FGF21: endocrine fibroblast growth factor 21, prior-art browning factor (Fisher et al. 2012) (protein, UniProt Q9NSA1 29-209, looked up)
Fibroblast growth factor 21: HPIPDSSPLLQFGGQVRQRYLYTDDAQQTEAHLEIREDGTVGGAADQSPESLLQLKALKPGVIQILGVKTSRFLCQRPDGALYGSLHFDPEACSFRELLLEDGYNVYQSEAHGLPLHLPGNKSPHRDPAPRGPARFLPLPGLPPALPEPPGILAPQPPDVGSSDPLSMVGPSQGRSPSYAS
Appearance of brown-like adipocytes [1]: increases the appearance of brown-like adipocytes

B2: FGF8a: human recombinant FGF8 spliceform a (R&D Systems); SEQ ID NO:15 (protein)
chain: MGSPRSALSCLLLHLLVLCLQAQHVREQSLVTDQLSRRLIRTYQLYSRTSGKHVQVLANKRINAMAEDGDPFAKLIVETDTFGSRVRVRGAETGLYICMNKKGKLIAKSNGKGKDCVFTEIVLENNYTALQNAKYEGWYMAFTRKGRPRKGSKTRQHQREVHFMKRLPRGHHTTEQSLRFEFLNYPPFTRSLRGSQRTWAPEPR
modifications: human FGF8a
Induction of Ucp1 mRNA expression (browning potential), screening of paracrine FGFs and FGF8 spliceforms [2]: did not induce Ucp1 mRNA expression
Induction of Ucp1 mRNA expression (browning potential), screening of paracrine FGFs and FGF8 spliceforms [3]: did not induce Ucp1 mRNA expression

B3: FGF8f: human recombinant FGF8 spliceform f (R&D Systems); SEQ ID NO:18 (protein)
chain: MGSPRSALSCLLLHLLVLCLQAQEGPGRGPALGRELASLFRAGREPQGVSQQVTVQSSPNFTQHVREQSLVTDQLSRRLIRTYQLYSRTSGKHVQVLANKRINAMAEDGDPFAKLIVETDTFGSRVRVRGAETGLYICMNKKGKLIAKSNGKGKDCVFTEIVLENNYTALQNAKYEGWYMAFTRKGRPRKGSKTRQHQREVHFMKRLPRGHHTTEQSLRFEFLNYPPFTRSLRGSQRTWAPEPR
modifications: human FGF8f
Induction of Ucp1 mRNA expression (browning potential), screening of paracrine FGFs and FGF8 spliceforms [2]: effective
Induction of Ucp1 mRNA expression (browning potential), screening of paracrine FGFs and FGF8 spliceforms [3]: only effective in inducing Ucp1 expression in adipocytes of epididymal adipocytes

B4: FGF17: human recombinant fibroblast growth factor 17 (PeproTech), FGF8 subfamily; SEQ ID NO:23 (protein)
chain: MGAARLLPNLTLCLQLLILCCQTQGENHPSPNFNQYVRDQGAMTDQLSRRQIREYQLYSRTSGKHVQVTGRRISATAEDGNKFAKLIVETDTFGSRVRIKGAESEKYICMNKRGKLIGKPSGKSKDCVFTEIVLENNYTAFQNARHEGWFMAFTRQGRPRQASRSRQNQREAHFIKRLYQGQLPFPNHAEKQKQFEFVGSAPTRRTKRTRRPQPLT
modifications: human FGF17
Induction of Ucp1 mRNA expression (browning potential), screening of paracrine FGFs and FGF8 spliceforms [2]: increased expression of Ucp1 mRNA expression
Induction of Ucp1 mRNA expression (browning potential), screening of paracrine FGFs and FGF8 spliceforms [3]: strongly induce Ucp1 mRNA expression

B5: FGF8e: human recombinant FGF8 spliceform e (R&D Systems); SEQ ID NO:17 (protein)
chain: MGSPRSALSCLLLHLLVLCLQAQEGPGRGPALGRELASLFRAGREPQGVSQQHVREQSLVTDQLSRRLIRTYQLYSRTSGKHVQVLANKRINAMAEDGDPFAKLIVETDTFGSRVRVRGAETGLYICMNKKGKLIAKSNGKGKDCVFTEIVLENNYTALQNAKYEGWYMAFTRKGRPRKGSKTRQHQREVHFMKRLPRGHHTTEQSLRFEFLNYPPFTRSLRGSQRTWAPEPR
modifications: human FGF8e
Induction of Ucp1 mRNA expression (browning potential), screening of paracrine FGFs and FGF8 spliceforms [2]: did not induce Ucp1 mRNA expression
Induction of Ucp1 mRNA expression (browning potential), screening of paracrine FGFs and FGF8 spliceforms [3]: did not induce Ucp1 mRNA expression
